Assay results reported in patent publication US11666658B2, “Rifamycin analogs and antibody-drug conjugates thereof” (Regeneron Pharmaceuticals, Inc., priority 2018, dated 2023).

Assays:
[1] = system: S. aureus MRSA strain NRS384; experiment: S. aureus IV disseminated infection mouse model (humanized MSR1 mice), kidney burden; assay type: in vivo, Staphylococcus aureus; conditions: with vancomycin; for # of mice with S. aureus below the limit of detection: limit of detection = 250 cfu
Description: To test the efficacy of an anti-MSR1 Ab-antibiotic ncADC according to the disclosure in vivo, an intravenous disseminated infection model was utilized. S. aureus MRSA strain NRS384 was grown overnight in trypic soy broth (TSB) and sub-cultured to mid-logarithmic phase. Bacteria were then washed twice with PBS and resuspended in PBS at a concentration of 1.2×10^8 cfu/mL. […] From one to three days post infection, mice were treated with 110 mg/kg vancomycin subcutaneously twice daily wherein indicated. […] Mice were monitored for weight loss and body conditioning score throughout the infection. At four days post infection, mice were euthanized and the S. aureus kidney burden was quantified by tissue homogenization followed by enumeration of colony forming units through serial dilution in PBS and plating onto trypicase soy agar plates.

[2] = target: T1, MSR1 on differentiated THP-1 cells (Homo sapiens, UniProt P21757); experiment: Binding and internalization of cell-surface expressed MSR1 (confocal imaging); assay type: cell-based; conditions: 10 μg/mL antibody
T1 construct: endogenously expressed human MSR1; endogenous in cells; host or cells: THP-1 cells treated with 200 nM PMA
T1 sequence (P21757 1-451): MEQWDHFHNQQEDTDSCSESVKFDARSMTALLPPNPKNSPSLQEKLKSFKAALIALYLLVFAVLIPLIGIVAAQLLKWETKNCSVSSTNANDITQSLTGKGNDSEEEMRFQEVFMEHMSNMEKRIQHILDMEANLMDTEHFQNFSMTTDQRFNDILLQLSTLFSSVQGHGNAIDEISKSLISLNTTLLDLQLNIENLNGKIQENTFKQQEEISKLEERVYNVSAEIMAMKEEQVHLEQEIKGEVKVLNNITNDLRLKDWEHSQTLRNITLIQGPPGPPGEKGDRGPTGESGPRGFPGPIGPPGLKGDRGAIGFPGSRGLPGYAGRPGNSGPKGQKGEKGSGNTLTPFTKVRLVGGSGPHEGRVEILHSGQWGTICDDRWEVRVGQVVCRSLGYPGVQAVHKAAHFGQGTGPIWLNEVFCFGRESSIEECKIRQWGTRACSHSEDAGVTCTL
Description: The THP-1 cells were allowed to differentiate for 4 days at 37° C. in 5% CO2. […] The remaining two plates were incubated at 37° C. for 1 hour followed by fixation and staining for 20 minutes using a solution of 4% PFA+5 μM DRAQ5 diluted in PBS (internalization plates). After fixation, all plates were washed once with PBS. […] The remaining plates were incubated with PBS only. Confocal images were acquired on the Opera Phenix (Perkin Elmer) at 40× magnification. […] The total binding at 4° C. (RFU values of 4° C. unquenched wells), total binding at 37° C.
For all calculations, background fluorescence from unstained wells was subtracted from every well. Total internalized RFU was calculated as follows: Total RFU of 37° C. unquenched samples—Surface RFU at 37° C. Surface RFU is defined as unquenched RFU at 37° C.-quenched RFU at 37° C.)/QE. QE (quenching efficiency) is defined as: 1-(Total RFU of 4° C. quenched sample/Total RFU of 4° C. unquenched sample). The % Internalization was determined from the following formula: (Total internalized RFU at 37° C./Total RFU at 37° C.)*100.

[3] = target: T2, mouse MSR1 extracellular domain (His9-mMSR1) (Mus musculus, UniProt P30204); experiment: OCTET bio-layer interferometry binding kinetics, 25° C.; conditions: antibody-capture format
T2 construct: mouse MSR1 extracellular domain expressed with a N-terminal nonahistidine tag; purchased R&D Systems 1797-MS
T2 sequence (P30204 79-458 limits assumed): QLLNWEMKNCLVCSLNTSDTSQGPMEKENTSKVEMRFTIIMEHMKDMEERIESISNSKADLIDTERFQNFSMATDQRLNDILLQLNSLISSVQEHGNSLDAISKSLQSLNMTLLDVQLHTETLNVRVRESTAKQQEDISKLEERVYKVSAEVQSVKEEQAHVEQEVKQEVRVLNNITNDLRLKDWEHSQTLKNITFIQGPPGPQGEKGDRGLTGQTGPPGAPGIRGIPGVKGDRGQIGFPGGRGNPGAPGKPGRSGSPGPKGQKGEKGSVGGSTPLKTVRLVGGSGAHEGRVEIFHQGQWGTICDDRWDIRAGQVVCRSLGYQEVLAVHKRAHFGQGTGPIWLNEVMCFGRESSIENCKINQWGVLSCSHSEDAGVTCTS
Description: Binding affinities and kinetic constants of human anti-MSR1 antibodies for different MSR1 reagents were determined using a real time, label-free bio-layer interferometry assay on an OCTET® HTX biosensor platform (Pall FortéBio Corp., Menlo Park, Calif.). The experiment was performed at 25° C. in 10 mM HEPES, 150 mM NaCl, 3 mM EDTA, 0.05% v/v Surfactant Tween-20, and 1 mg/mL BSA, pH7.4 (HBS-EBT) buffer with the plate shaking at the speed of 1000 rpm. […] The binding of different MSR1 reagents to the captured anti-MSR1 monoclonal antibody was measured for 4 minutes and the dissociation of monoclonal antibody bound MSR1 reagent was monitored for 8-10 minutes in HBS-EBT buffer.
The association rate (ka) and dissociation rate (kd) were determined by fitting the real-time binding sensorgrams to a 1:1 binding model with mass transport limitation using Scrubber 2.0 c curve-fitting software. Binding dissociation equilibrium constant (KD) and dissociative half-life (t½) were calculated from the kinetic rates as: […]

[4] = mAb or conjugate dose 0.1 mg/kg

B1: H1H21234N-N297Q: "An anti-MSR1 antibody H1H21234N containing a N297Q mutation, which eliminates N-linked glycosylation of the Fc at this site" (antibody, V domains shown)
VH: QVQLQESGPGLVKPSETLSLTCTVTGGSISRNYWSWIRQPPGKGLEWIGYIYYSGSIDYNPSLKSRVTISVDTSKNQFSLKLSSMTAADTAVYYCARDRWNWKYGMDVWGQGTTVIVSS
VL: EIVLTQSPGTLSLSPGERATLSCRASQTVRNNYLAWYHQKPGQAPRLLIYGASSRATGIPDRFSGSGSGTDFTLTISRLEPEDFTVYYCHQYGNSPWTFGQGTKMEIKR
Average cfu/kidney pair [1, 4]: 2.43E+05 cfu/kidney pair
# of mice with S. aureus below the limit of detection [1, 4]: 0/6
Average cfu/kidney pair ([1]; mAb or conjugate dose 1 mg/kg): 1.55E+05 cfu/kidney pair
# of mice with S. aureus below the limit of detection ([1]; mAb or conjugate dose 1 mg/kg): 4/8
Total Binding at 4° C. ([2]; 4° C.): 1953248
% Internalization ([2]; 37° C.): 13.3%
Total Binding at 37° C. ([2]; 37° C.): 5451125
Total Internalized RFU ([2]; 37° C.): 722651 RFU
kd ([3]; analyte His9-mMSR1, * = no dissociation observed, kd manually fixed at 5.00E−05): 5.00E−05* s^−1
ka ([3]; analyte His9-mMSR1, NB = no binding, IC = inconclusive): 38200 M⁻¹ s⁻¹
